Data on 3 substances can be found in article PMC2120792.

Assay [1] addresses recombinant human plakoglobin, complete (pQPg) (human) (UniProt P14923). The experiment in a line: ELISA.
The target of assay [2] is SyPg(234), synaptophysin-plakoglobin chimera truncated after plakoglobin residue 234 (rat | human) (UniProt P07825). In words: co-IP.
The target of assay [3] is SyPg(580), synaptophysin-plakoglobin chimera truncated after plakoglobin residue 580 (rat | human) (UniProt P07825). The experiment in a line: co-IP.

Bounds are passed on as bounds.

Chain of UniProt P14923 (P14923 whole entry, the tested form may be a part): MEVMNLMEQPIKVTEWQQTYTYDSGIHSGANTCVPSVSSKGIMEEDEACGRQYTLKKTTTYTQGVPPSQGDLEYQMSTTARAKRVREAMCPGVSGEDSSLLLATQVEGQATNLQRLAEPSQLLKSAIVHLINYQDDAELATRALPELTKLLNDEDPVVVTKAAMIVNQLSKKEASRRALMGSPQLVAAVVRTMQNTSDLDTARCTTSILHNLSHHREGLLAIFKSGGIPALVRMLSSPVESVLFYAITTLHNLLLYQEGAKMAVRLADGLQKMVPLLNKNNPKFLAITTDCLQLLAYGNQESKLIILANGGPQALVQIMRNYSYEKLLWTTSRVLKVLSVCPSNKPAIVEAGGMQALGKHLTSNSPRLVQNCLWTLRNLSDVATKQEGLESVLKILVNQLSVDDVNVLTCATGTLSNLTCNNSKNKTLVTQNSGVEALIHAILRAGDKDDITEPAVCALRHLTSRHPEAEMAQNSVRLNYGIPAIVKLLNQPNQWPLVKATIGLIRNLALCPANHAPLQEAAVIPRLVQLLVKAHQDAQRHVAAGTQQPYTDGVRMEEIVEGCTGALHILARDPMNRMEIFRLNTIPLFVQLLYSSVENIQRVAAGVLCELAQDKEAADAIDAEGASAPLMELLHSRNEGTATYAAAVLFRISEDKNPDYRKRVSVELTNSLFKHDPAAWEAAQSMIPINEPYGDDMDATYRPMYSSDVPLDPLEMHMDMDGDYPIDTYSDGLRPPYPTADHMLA

As for “HCDc, his-tagged cadherin tail with the IA subdomain and C-domain of bovine Dsc1 (domain or fragment)”, the fold weaker binding than HCDg in assay [1] was 2 fold.

Regarding “HCUv, his-tagged cadherin tail with the IA subdomain of bovine Dsc1 and the C-subdomain of murine E-cadherin”, the fold weaker binding than HCDg in assay [1] came to 5 fold.

Consider “endogenous desmoglein (Dsg) (from UniProt Q14126 50-1118) (natural protein)”, for which the Dsg coprecipitated relative to SyPg (fraction of that with SyPg) in assay [2] and in assay [3] was < 0.33 throughout.
